Results taken from a protein production outcome set (Wang et al. 2014).

Test: label from the status in PepcDB records

Row | Sequence | protein production
1 | NNINVITDQMGNLDIKSNDNINQNTQNSNVASDLNLLTQNKYLENILMMNTYGVNYDHLFLPQNVAYLAAQQLSNNIMNNRNQINAAYTSQQYPNQSIPIKNIYDQSHLKYQQNSSSWRPPLNNGNIYDGVKSNPMGLHILQNGIDLYTNVDSNSVTSAINFDKYDSIPVSVTGPDYSATNVIENFDELKLDPTIRNNILLASYQRPTPIQKNAIPAILEHRDIMACAQTGSGKTAAFLIPIINHLVCQDLNQQRYSKTAYPKCLILAPTRELAIQILSESQKFSLNTPLRSCVVYGGADTHSQIREVQMGCHLLVATPGRLVDFIEKNKISLEFCKYIVLDEADRMLDMGFEPQIRKIIEESNMPSGINRQTLMFSATFPKEIQKLAADFLYNYIFMTVGRVGSTSDSIKQEIIYMTDVEKLNYLKNIFNTTAPNTLILIFVETKKGADSLARFLLSKGYPVSSIHGDRSQVEREAALSMFRNGQCPILVATAVAARGLDIPNVKHVINYDLPSDIEEYVHRIGRTGRLGNHGRATSFYVDKNNNIAIDLVDLLKEANQIVPQWLSALADELKRNSTMGSNNKRHNQRRYKNGNFGGRDYRQGPSNVNMNSGVNPDYFISGSVAPRHAKLNNGNYFPRSNELHDQHQKQNNNNNQVISNTFHTGISASHLIPGYATFNRQQAPLHFIPHQTNNTQFLSSSGQMALYNRMQNSGHMAPNQRFPNEPIHHQQEQLPITYNFSKNLPYLGQSYSGHNNNNNNNNNTSKINDSDSCYFGNKTPR | not failed
2 | MNARLGVSLKILSALCATLMLACVKGLNGAIPTGEVIFFRSFVALFPLLLWLKVQGNILQRIKTKNIFGHLIRGFSGTGGMYFNYLALVYISLADATAISYAAPLFTVLMAAILLKENVHFSRWLAVIVGFCGILIMLSAKLTISNGLFSSGFALDGTALGATFALLAAACAATSNIQIRFLNGVESPGAIVFYFSLMTTLIGLFTLVFGWKMPHGWQWLLLIGCGLFGGIAQILVTLSLRYADASLLAPFDYTTLVWSMVIGYLFLDNLPEYATLMGASVVALAGIFTIWCNRRQRKGHIVRSS | failed
3 | MSQDKQMKAVSPLLQRVINISSIVGGVGSLIFCIWAYQAGILQSKETLSAFIQQAGIWGPPLFIFLQILQTVVPIIPGALTSVAGVFIYGHIIGTIYNYIGIVIGCAIIFYLVRLYGAAFVQSVVSKRTYDKYIDWLDKGNRFDRFFIFMMIWPISPADFLCMLAALTKMSFKRYMTIIILTKPFTLVVYTYGLTYIIDFFWQML | failed
4 | MASISATLYELCEAVDHPVPTRDRDVEAVFAEIEFDAIEFCPIEFVILPIGDWLDIFGDKIVLSEPFESAVDCRLRDPGAVAELCRRARLLFRLDENRARTLVTEQVCECFRISHVGHCKRAISWFVNIGCAVLGFLSGFSQRSHKKLPSISALTFRVRMSNRQTRTPTSVLLPTVSWTAACDDVAAQLGPEDELLIIHDSKDDPVVDRKPLSENVQFIPAGDPVGCSGKANAIAAGMEAANHDRLVWTDDDFHHPPDWLDRLHKDYAEYGPTTELPAFVGQDPLAVLLEPVYVLGGTLGTYMGDHAWGGAVIFDRSALDEERFLSELRQTISDDGLLGEHISVTSVQRVRRVPMGGSLRQTLERHIRFNQIFSTHDPTVAKLSFGVLVAVLIGCVFFPLLAVVLTVLTAGVSASFGVRRASLLLTVPALVAAVPLGLYAFARDTFVWGGRRYRWHSKFDVEVLNE | failed
5 | MSNVVWTNFGRSSPDRMRARGGKLMAEPDFEAQLTRMFAQAPSFPDAALFNAEVMAKLDRGWAMRRMFIAVAGTGAGLIGAFQIFGSRFSNELAQLSREGSHGLETEINGGWAKLTALLSTPSSAEAVWLAAGLAVVALAFAVTRLVEDF | failed
6 | MIEFITPRTFLFSTQTVVFSVLLFVFYIFYRTFSRKYVKYWLMSIGALNFSYLIKSFVPYSSRNFSSDSWQILAELLLQIFQYSFLIFLIFGVYIAKNNKELSKEILSGGIGAIIILSVISTMFFAFDPSQAFNHFYLTISLPSFIFGCTFLSLACYLLFDKKSYFSSQVLMYFSAIFGLRYLMHSFISIVALTEPWFRQLELFLLYFDVAAHSILGFTLLIWMQGAERFATLSAISRAQYLGKHDSLTGALNREQVMAKLSDKMQELTHANKINKNQMKLAVFLIDIKQFKFINDTYGLKVGDFILGEIASRLNHSVFIPQAVGRLSGDSFMFVIEFEQISHVDRAVNHIHELIERCFRYEQQEITIQGSVGYCFYPDDADKSEDLLQKSNLALHHAETNNIPSVAFEEGMQAQGRHLVLMEKQLRSAIANDEFVLYYQPQLNLFTNKLEGVEALVRWQHPEKGLLSPGDFLTELETLGMHNEFDNYILVKACQASERWFKLYQRRVAIAVNITAVEFQNEQLVTNIQMLLHKYGIPSKYIELEITENVVMTDITRAMDSIVKLQSMGIKVSIDDFGTGYSSLAYLRDLPIDKIKIDRSFINEVAINDSDLTIVKSMVDLSHGLGKRVLAEGVETIEQLNLLRHLGCDAVQGYFISKPLPESKLVRYLKKK | failed
7 | MLPSRKTKRVFSCDFTPGRKRRRCVVVPSSVSPVPENTTGADLLDSIPDDLVISILCKLGSTSRCPADFINVLLTCKRLKGLAMNPIVLSRLSPKAIAVKAHNWSEYSHRFLKRCVDAGSLEACYTLGMIRFYCLQNRGNGASLMAKAAISSHAPALYSLAVIQFNGSGGSKNDKDLRAGVALCARAAFLGHVDALRELGHCLQDGYGVPQNVSEGRRFLVQANARELAAVLSSGIQARSTWLSLSQPPPPVVPNHGQQTCPLLSDFGCNVPAPETHPANRFLADWFAVRGGDCPGDGLRLCSHAGCGRPETRKHEFRRCSVCGVVNYCSRACQALDWKLRHKMDCAPVQRWLEEGDGGEGNVQIDGNGNGDNVLLPMS | failed
8 | MMYFGIIPLILFIIFLISYLKDPRKIINGFLFNAFICFFLLFCVIVSLNSDSDVLRYIIFLPFLALLIMLPFGIVALMFGLFLNARILMKREGRRFTNCLTLLAALGMLFFMLLPIINPASLVSSHLEPIFAAISLISIYFFIHLSNFLSAYFLYQFNRPRRNQDFIIVLGSGLINDKVPPLLASRINKAIDFYWKQAAVNTPPTIIFSGGQGPDEGLPEAEAMQNYAVEKGIPIEHTVQENRSVNTYQNMLFSKEIMDSLKPEGKYKSIFTTNNFHLFRAGIYARQAGLNSQGIGSKTAFYYWPNAMIREYVAIVVMGRKRHMKICGTILGFAVFVSILSFIFS | failed
9 | SKHAKSFKDDMYLRTEHVVWQKEMLTLARLAAAVDMAAADSKDVANSHIFDAMVNQKIKLQNPEVLKKWLGEQTAFDGKKVLAAYESPESQARADKMQELTETFQIDGTPTVIVGGKYKVEFADWESGMNTIDLLADKVREEQKAAQ | failed
10 | MRVLPLLLLIYPFAEIAALVALADRIGGLAVFLLVLLSSMLGLWMLRNQKLGALLTLGSVMRQGDKVSLYSLLWPLRYALAGLLFLLPGLLSDVAAVLLLLPLKGPDISLRATGAGPAAGPAGGSDIIEGEFSRVDETTPPGRRIQ | failed
11 | MKALIFAAGFGERMRPLTEHTPKPLLSVGGTPLIVWHLRKLAALGVDEVVINTSWLAEQFPQVLGDGSAFGLRLTYSYEGATPLETGGGMLHALPLLGDAPFLLVNGDIWTDFDFARLSHAPDGLAQLVLVDQPSYATRADFALDADGNVRADLPASLTYSGIGMYRPALLRDWQSVIGQLPEQPCTAPRFALAPILRAQMTARLINGIHHSGRWTDVGTPQRLAELDAQLLRDGS | failed
12 | MEVNNETMQKSKFGRICVFCGSSQGKKSSYQDAAVDLGNELVLRNIDLVYGGGSIGLMGLVSQAVHDGGRHVIGVIPKTLMPRELTGETVGEVRAVADMHQRKAEMARHSDAFIALPGGYGTLEELLEVITWAQLGIHDKPVGLLNVDGYYNSLLSFIDKAVEEGFISTNARQIIISAPTAKELVKKLEEYSPCHESVATKLCWEIERIDYSSED | failed
13 | MTPYTEVELTLIQYVLVVVSGFIIGLILGLIGGGGSILAVPLLLYFVGLGNDSSSFGNYSNITHLVLGTSALAVGLNAYINSFIHWRKGNVKVFEGVVFTIPGVIGSILGAYFGYLTTGNLILIMFGIVMILIGLRMIKSKCKEGSNETKGSGDTGVVKSKDRINIRIIYTGFLVGLASGFLGIGGGFLIVPALLFSTSMSIISAIGTSLISVGTFGLSTALTYASYGEIDYILSLILLAGGVGGGYIGTLLASKSPRSTLRKVFGVVLIVVAIYIIYRNLLL | failed
